Assay results as given in patent US20050187147A1 (published 2005).
Square brackets hold non-standard residues; d marks the D form. Primed or numbered codes have the meaning given here. * marks the point of attachment. 10Ca = carbamate linkage conjugating the peptide-PEG to paclitaxel at C10; ALK(6) = not defined here; 10Es = not defined here; Cbz = O=C(OCc1ccccc1)*; PEG(13) = PEG13 linker; Piv = CC(C)(C)C(=O)*; OBn = c1ccc(CO*)cc1; PXL = paclitaxel

The binders below were run against Human Src kinase (Upstate #14-326) (human, UniProt P12931 1-536) (assay: cell-based or functional assay).

Average src kinase activity, 0 % of parent peptide activity:
Ac-EYIFGSFK-{PEG(13)-10Ca-PXL} [Ac-EYIFGSFK-PEG(13)-10Ca-PXL], Ac-E(OBn)YIYGSFK(Cbz)-{PEG(13)-10Ca-PXL} [Ac-E(Bzl)YIYGSFK(CBz)-PEG(13)-10Ca-PXL], Cbz-YIYGSFK(Cbz)-{ALK(6)-10Es-PXL} (reading uncertain) [CBz-YIYGSFK(CBz)-ALK(6)-10Es-PXL], Piv-YIFGSFR-{PEG(13)-10Ca-PXL} [Pv-YIFGSFR-PEG(13)-10Ca-PXL], Ac-EYI[dY]GSFK-{PEG(13)-10Ca-PXL} [Ac-EYIyGSFK-PEG(13)-10Ca-PXL]
